What all share (assay): SPR
Test [1] deals with MutS STAB4 (Escherichia coli) (UniProt P23909).
Test [2] deals with MutS STAB1 (Escherichia coli) (UniProt P23909).
The target in test [3] is MutS STAB2 (Escherichia coli) (UniProt P23909).
For test [4], the target named is MutS STAB3 (Escherichia coli) (UniProt P23909).
Test [5] has as its target T1, WT MutS (Escherichia coli, UniProt P23909 1-853).
T1 sequence (looked up): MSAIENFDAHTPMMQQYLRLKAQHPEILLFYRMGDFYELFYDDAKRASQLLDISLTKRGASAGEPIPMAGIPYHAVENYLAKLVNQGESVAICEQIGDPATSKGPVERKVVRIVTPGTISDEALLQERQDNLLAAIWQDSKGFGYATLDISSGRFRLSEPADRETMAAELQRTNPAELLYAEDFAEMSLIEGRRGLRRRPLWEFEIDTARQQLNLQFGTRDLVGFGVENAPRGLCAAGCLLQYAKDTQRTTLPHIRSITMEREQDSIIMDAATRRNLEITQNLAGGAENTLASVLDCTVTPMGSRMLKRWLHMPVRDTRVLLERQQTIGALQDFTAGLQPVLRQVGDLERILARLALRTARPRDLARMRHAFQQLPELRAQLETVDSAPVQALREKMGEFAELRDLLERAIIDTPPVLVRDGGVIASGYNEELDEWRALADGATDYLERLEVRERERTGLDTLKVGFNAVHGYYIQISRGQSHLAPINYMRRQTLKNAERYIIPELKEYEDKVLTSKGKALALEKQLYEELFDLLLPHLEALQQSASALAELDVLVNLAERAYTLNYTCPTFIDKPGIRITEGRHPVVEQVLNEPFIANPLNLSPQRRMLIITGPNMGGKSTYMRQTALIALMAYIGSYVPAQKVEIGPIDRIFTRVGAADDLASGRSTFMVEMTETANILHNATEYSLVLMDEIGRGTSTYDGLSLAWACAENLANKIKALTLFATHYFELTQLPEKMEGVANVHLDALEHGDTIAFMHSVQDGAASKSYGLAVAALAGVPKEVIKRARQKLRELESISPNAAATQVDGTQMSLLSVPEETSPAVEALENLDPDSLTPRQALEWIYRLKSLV

In the case of “MutL WT (from UniProt P23367 1-615) (natural protein)”, the Kd was 11 nM in test [1], 18 nM in test [2], 16 nM in test [3] and 17 nM in test [4].

B1: MutL WT (natural protein, UniProt P23367 1-615, looked up)
chain: MPIQVLPPQLANQIAAGEVVERPASVVKELVENSLDAGATRIDIDIERGGAKLIRIRDNGCGIKKDELALALARHATSKIASLDDLEAIISLGFRGEALASISSVSRLTLTSRTAEQQEAWQAYAEGRDMNVTVKPAAHPVGTTLEVLDLFYNTPARRKFLRTEKTEFNHIDEIIRRIALARFDVTINLSHNGKIVRQYRAVPEGGQKERRLGAICGTAFLEQALAIEWQHGDLTLRGWVADPNHTTPALAEIQYCYVNGRMMRDRLINHAIRQACEDKLGADQQPAFVLYLEIDPHQVDVNVHPAKHEVRFHQSRLVHDFIYQGVLSVLQQQLETPLPLDDEPQPAPRSIPENRVAAGRNHFAEPAAREPVAPRYTPAPASGSRPAAPWPNAQPGYQKQQGEVYRQLLQTPAPMQKLKAPEPQEPALAANSQSFGRVLTIVHSDCALLERDGNISLLSLPVAERWLRQAQLTPGEAPVCAQPLLIPLRLKVSAEEKSALEKAQSALAELGIDFQSDAQHVTIRAVPLPLRQQNLQILIPELIGYLAKQSVFEPGNIAQWIARNLMSEHAQWSMAQAITLLADVERLCPQLVKTPPGGLLQSVDLHPAIKALKDE
In test [5], B1 gave a Kd of 15 nM. In other words, the double-digit nanomolar range.

Source of the values: article PMC6895276 (Nucleic Acids Research, 2019).
